Source: the supplement of paper PMC11246515
± gives the standard deviation of the averaged measurements.

Experiment: total protein half-life in vivo (active degradation + dilution); higher = more stable protein
[1] = E. coli NCM3722 delta-clpP delta-lon delta-hslV, growth: N-lim chemostat, doubling time 6 h
[2] = E. coli NCM3722 delta-clpP, growth: N-lim chemostat, doubling time 6 h
[3] = E. coli NCM3722 delta-hslV, growth: N-lim chemostat, doubling time 6 h
[4] = E. coli NCM3722 delta-lon, growth: N-lim chemostat, doubling time 6 h
[5] = E. coli NCM3722 delta-smpB, growth: N-lim chemostat, doubling time 6 h
[6] = wild type E. coli NCM3722, growth: C-lim chemostat, doubling time 3 h
[7] = wild type E. coli NCM3722, growth: C-lim chemostat, doubling time 6 h
[8] = wild type E. coli NCM3722, growth: C-lim chemostat, doubling time 12 h
[9] = wild type E. coli NCM3722, growth: N-lim chemostat, doubling time 6 h
[10] = wild type E. coli NCM3722, growth: N-lim chemostat, doubling time 12 h
[11] = wild type E. coli NCM3722, growth: P-lim chemostat, doubling time 6 h
[12] = wild type E. coli NCM3722, growth: P-lim chemostat, doubling time 12 h

Row | Sequence | total protein half-life in vivo [1] [h] | total protein half-life in vivo [2] [h] | total protein half-life in vivo [3] [h] | total protein half-life in vivo [4] [h] | total protein half-life in vivo [5] [h] | total protein half-life in vivo [6] [h] | total protein half-life in vivo [7] [h] | total protein half-life in vivo [8] [h] | total protein half-life in vivo [9] [h] | total protein half-life in vivo [10] [h] | total protein half-life in vivo [11] [h] | total protein half-life in vivo [12] [h]
1 | MCTTCGCGEGNLYIEGDEHNPHSAFRSAPFAPAARPKMKITGIKAPEFTPSQTEEGDLHYGHGEAGTHAPGMSQRRMLEVEIDVLDKNNRLAERNRARFAARKQLVLNLVSSPGSGKTTLLTETLMRLKDSVPCAVIEGDQQTVNDAARIRATGTPAIQVNTGKGCHLDAQMIADAAPRLPLDDNGILFIENVGNLVCPASFDLGEKHKVAVLSVTEGEDKPLKYPHMFAAASLMLLNKVDLLPYLNFDVEKCIACAREVNPEIEIILISATSGEGMDQWLNWLETQRCA [P0AAN3] | 4.03 ± 0.57 | 3.15 | 2.72 ± 0.035 | 3.48 ± 0.13 | 3.079 ± 0.0096 | 2.29 ± 0.11 | 4.19 ± 0.074 | 6.66 ± 0.1 | 3.14 ± 0.63 | 3.83 ± 0.63 | 3.69 ± 0.052 | 7.22 ± 0.56
2 | MDALELLINRRSASRLAEPAPTGEQLQNILRAGMRAPDHKSMQPWHFFVIEGEGRERFSAVLEQGAIAAGSDDKAIDKARNAPFRAPLIITVVAKCEENHKVPRWEQEMSAGCAVMAMQMAAVAQGFGGIWRSGALTESPVVREAFGCREQDKIVGFLYLGTPQLKASTSINVPDPTPFVTYF [P0ACY1] | 5.15 ± 0.18 | 5.29 ± 0.85 | 4.55 ± 0.042 | 4.85 ± 0.25 | 4.85 ± 0.27 | 2.91 ± 0.03 | 5.49 ± 0.1 | 9.81 ± 4.2 | 4.7 ± 0.14 | 7.1 ± 0.14 | 5.6 ± 0.17 | 11.6 ± 1.3
3 | MDALSRLLMLNAPQGTIDKNCVLGSDWQLPHGAGELSVIRWHALTQGAAKLEMPTGEIFTLRPGNVVLLPQNSAHRLSHVDNESTCIVCGTLRLQHSARYFLTSLPETLFLAPVNHSVEYNWLREAIPFLQQESRSAMPGVDALCSQICATFFTLAVREWIAQVNTEKNILSLLLHPRLGAVIQQMLEMPGHAWTVESLASIAHMSRASFAQLFRDVSGTTPLAVLTKLRLQIAAQMFSRETLPVVVIAESVGYASESSFHKAFVREFGCTPGEYRERVRQLAP | – | – | 6.33 | 6.04 | 5.156 ± 0.014 | – | 5.12 ± 3.4 | 11.8 ± 2.5 | 5.92 ± 0.51 | – | 5.4 ± 0.16 | 12.4 ± 1.3
4 | MDAMKYNDLRDFLTLLEQQGELKRITLPVDPHLEITEIADRTLRAGGPALLFENPKGYSMPVLCNLFGTPKRVAMGMGQEDVSALREVGKLLAFLKEPEPPKGFRDLFDKLPQFKQVLNMPTKRLRGAPCQQKIVSGDDVDLNRIPIMTCWPEDAAPLITWGLTVTRGPHKERQNLGIYRQQLIGKNKLIMRWLSHRGGALDYQEWCAAHPGERFPVSVALGADPATILGAVTPVPDTLSEYAFAGLLRGTKTEVVKCISNDLEVPASAEIVLEGYIEQGETAPEGPYGDHTGYYNEVDSFPVFTVTHITQREDAIYHSTYTGRPPDEPAVLGVALNEVFVPILQKQFPEIVDFYLPPEGCSYRLAVVTIKKQYAGHAKRVMMGVWSFLRQFMYTKFVIVCDDDVNARDWNDVIWAITTRMDPARDTVLVENTPIDYLDFASPVSGLGSKMGLDATNKWPGETQREWGRPIKKDPDVVAHIDAIWDELAIFNNGKSA [P0AAB4] | 6.47 ± 0.5 | 6.032 ± 0.049 | 6.88 ± 0.78 | 6.27 ± 0.71 | 6.38 ± 0.54 | 2.98 ± 0.37 | 6.29 ± 0.21 | 11.3 ± 0.45 | 5.82 ± 0.23 | 11.4 ± 0.32 | 5.99 ± 0.093 | 12.5 ± 0.62
5 | MDDLTAQALKDFTARYCDAWHEEHKSWPLSEELYGVPSPCIISTTEDAVYWQPQPFTGEQNVNAVERAFDIVIQPTIHTFYTTQFAGDMHAQFGDIKLTLLQTWSEDDFRRVQENLIGHLVTQKRLKLPPTLFIATLEEELEVISVCNLSGEVCKETLGTRKRTHLASNLAEFLNQLKPLL [P0A8U0] | 4.63 ± 0.19 | – | 3.71 ± 0.25 | 5.62 ± 1.2 | 4.15 ± 0.19 | > 4 | 4.21 ± 1.8 | 9.71 | 3.72 | 7.43 ± 1.4 | 5.7 ± 0.28 | 12.7 ± 2.7
6 | MDFNLNDEQELFVAGIRELMASENWEAYFAECDRDSVYPERFVKALADMGIDSLLIPEEHGGLDAGFVTLAAVWMELGRLGAPTYVLYQLPGGFNTFLREGTQEQIDKIMAFRGTGKQMWNSAITEPGAGSDVGSLKTTYTRRNGKIYLNGSKCFITSSAYTPYIVVMARDGASPDKPVYTEWFVDMSKPGIKVTKLEKLGLRMDSCCEITFDDVELDEKDMFGREGNGFNRVKEEFDHERFLVALTNYGTAMCAFEDAARYANQRVQFGEAIGRFQLIQEKFAHMAIKLNSMKNMLYEAAWKADNGTITSGDAAMCKYFCANAAFEVVDSAMQVLGGVGIAGNHRISRFWRDLRVDRVSGGSDEMQILTLGRAVLKQYR | > 8 | – | – | 3.62 ± 0.096 | 2.77 ± 0.42 | 2.46 | 3.58 | 7.41 ± 1.4 | – | – | 5.45 ± 0.16 | 11.5 ± 1.7
7 | MDHLPIFCQLRDRDCLIVGGGDVAERKARLLLDAGARLTVNALAFIPQFTAWADAGMLTLVEGPFDESLLDTCWLAIAATDDDALNQRVSEAAEARRIFCNVVDAPKAASFIMPSIIDRSPLMVAVSSGGTSPVLARLLREKLESLLPLHLGQVAKYAGQLRGRVKQQFATMGERRRFWEKLFVNDRLAQSLANNDQKAITETTEQLINEPLDHRGEVVLVGAGPGDAGLLTLKGLQQIQQADVVVYDRLVSDDIMNLVRRDADRVFVGKRAGYHCVPQEEINQILLREAQKGKRVVRLKGGDPFIFGRGGEELETLCNAGIPFSVVPGITAASGCSAYSGIPLTHRDYAQSVRLITGHLKTGGELDWENLAAEKQTLVFYMGLNQAATIQQKLIEHGMPGEMPVAIVENGTAVTQRVIDGTLTQLGELAQQMNSPSLIIIGRVVGLRDKLNWFSNH [P0AEA8] | 5.19 ± 0.22 | 4.33 ± 0.24 | 4.17 ± 0.56 | 5.23 ± 0.94 | 4.7 ± 0.87 | 3.42 ± 0.48 | 5.47 ± 0.28 | 10.12 ± 0.019 | 4.39 ± 0.22 | 7.57 ± 0.15 | 6.43 ± 1.1 | 13.6 ± 2.6
